Among the data in doi:10.1101/768242 (bioRxiv, 2019) are Kd values, retold here.

Experiment [1] has as its target T1, phospho-Ser45-β-catenin (pS45-β-catenin) (human, UniProt P35222 1-781, phosphoserine at 45).
T1 sequence: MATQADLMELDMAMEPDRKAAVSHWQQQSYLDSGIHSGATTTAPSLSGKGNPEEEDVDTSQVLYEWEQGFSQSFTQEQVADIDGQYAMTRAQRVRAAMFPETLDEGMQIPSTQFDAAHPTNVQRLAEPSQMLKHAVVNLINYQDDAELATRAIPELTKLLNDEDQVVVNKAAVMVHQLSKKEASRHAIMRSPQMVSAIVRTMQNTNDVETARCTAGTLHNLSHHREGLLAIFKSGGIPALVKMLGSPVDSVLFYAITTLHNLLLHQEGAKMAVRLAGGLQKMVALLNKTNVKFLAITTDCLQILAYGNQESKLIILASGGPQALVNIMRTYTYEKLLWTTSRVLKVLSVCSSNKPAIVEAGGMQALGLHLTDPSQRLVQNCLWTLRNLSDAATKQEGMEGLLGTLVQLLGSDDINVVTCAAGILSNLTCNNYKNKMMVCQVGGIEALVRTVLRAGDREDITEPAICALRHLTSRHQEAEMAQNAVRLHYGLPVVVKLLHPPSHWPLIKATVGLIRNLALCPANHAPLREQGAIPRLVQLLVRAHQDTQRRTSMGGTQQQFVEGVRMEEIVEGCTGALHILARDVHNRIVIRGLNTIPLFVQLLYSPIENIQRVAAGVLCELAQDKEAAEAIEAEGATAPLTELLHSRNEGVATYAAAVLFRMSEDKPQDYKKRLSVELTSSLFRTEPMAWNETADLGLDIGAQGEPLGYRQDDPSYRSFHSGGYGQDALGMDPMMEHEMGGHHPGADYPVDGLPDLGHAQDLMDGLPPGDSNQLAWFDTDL
Kind of experiment: BLI. In general terms: BLI is a label-free optical method that tracks binding on a fibre tip over time.

For a further experiment, the target named is GSK3β (human, UniProt P49841 1-420, phosphorylated on the activation loop Tyr216). Kind of experiment: BLI.
GSK3β, sequence (P49841 whole entry): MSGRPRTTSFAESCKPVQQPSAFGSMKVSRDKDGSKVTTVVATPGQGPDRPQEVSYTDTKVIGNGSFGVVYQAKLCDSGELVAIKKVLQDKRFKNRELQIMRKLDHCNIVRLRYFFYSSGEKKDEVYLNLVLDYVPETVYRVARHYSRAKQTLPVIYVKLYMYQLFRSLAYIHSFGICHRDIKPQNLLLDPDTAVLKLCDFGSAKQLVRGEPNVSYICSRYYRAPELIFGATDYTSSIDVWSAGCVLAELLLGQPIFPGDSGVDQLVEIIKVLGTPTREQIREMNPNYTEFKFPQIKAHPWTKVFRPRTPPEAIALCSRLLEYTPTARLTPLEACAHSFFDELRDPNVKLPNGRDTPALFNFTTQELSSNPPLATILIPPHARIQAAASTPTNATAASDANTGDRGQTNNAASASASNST

B1: Axin_(384-518) (miniAxin) (domain or fragment)
chain: EPQKFAEELIHRLEAVQRTREAEEKLEERLKRVRMEEEGEDGDPSSGPPGPCHKLPPAPAWHHFPPRCVDMGCAGLRDAHEENPESILDEHVQRVLRTPGRQSPGPGHRSPDSGHVAKMPVALGGAASGHGKHVP
As a reminder, the Kd is a measure of binding affinity in units of concentration. Low values mean a tighter complex, high ones a looser complex. With B1, the Kd in experiment [1] was 4 µM; with GSK3β, 16 nM.
